Legend:
Assay in all cases: MST
[1] = target: T2 gp009-6×His (phage T2)
[2] = target: T2 gp057-6×His (phage T2)
[3] = target: T2 gp006-6×His (phage T2)
[4] = target: T2 gp006^I20A-6×His (phage T2)

Substance bNACHT11 (natural protein) has a Kd [1] of 269 nM, a Kd [2] of 149 nM and a Kd [3] of 80 nM. The Kd [4] was 351 nM.
